According to US20260049151A1 (SHENGHE CHINA BIOPHARMACEUTICAL, published 2026):
Where two headings read alike, the source gives them in different places. Blank lines part the entries; values can stand above or below the binder they belong to.

Columns and labels:
Human 4-1BB His [1] = molecular target: T1, Human 4-1BB His (human, UniProt Q07011 24-186); experiment: ELISA: Human 4-1BB His coated (0.2 ug/mL), antibody titrated, goat anti-human IgG Fc detection (Example 3)
T1 construct: Bought protein; lots 198-2146F1-W6 and 2407c-214FF1-YC; also called human 4-1BB protein; 4-1BB protein; not shown: His tag
T1 sequence (Q07011 24-186 limits assumed): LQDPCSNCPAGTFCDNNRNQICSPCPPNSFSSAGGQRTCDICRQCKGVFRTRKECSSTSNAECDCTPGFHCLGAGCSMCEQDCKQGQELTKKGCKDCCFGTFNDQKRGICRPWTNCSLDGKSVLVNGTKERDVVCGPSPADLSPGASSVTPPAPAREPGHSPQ
Experimental: (§1) Human 4-1BB His (manufacturer: Acro, CAT: 41B-H5258, LOT: 198-2146F1-W6) was diluted to 0.2 μg/mL with a coating solution (1×PBS, pH7.4), and coated in 96-well ELISA plate at 100 μL/well overnight at 4° C. The coating solution was poured off. Each well was washed with 1×PBST at 300 μL, washed 4 times with a plate washer, and patted dry on a flat paper. It was blocked with 3% skim milk powder at 300 μL/well, and incubated at 37° C. for 1 h. The blocking solution was poured off, washed 4 times with a plate washer, and patted dry on a flat paper. Negative control and positive control were set up. […] The variable region of the antibody sequence of the positive control consists of SEQ ID NO: 15 and SEQ ID NO: 19, with the addition of the constant region of human IgG1 (SEQ ID NO: 46 and SEQ ID NO: 47). The positive control and antibody were diluted to 10 μg/mL with 3% skim milk powder as the starting concentration, and then diluted by 3-fold gradient (11 gradients in total), and a blank well was set up and only the diluent was added. It was incubated at 37° C. for 1 h at 100 μL/well. The liquid in the well was discarded, washed 4 times with a plate washer, and patted dry on a flat paper. Goat anti-human IgG Fc was diluted with 3% skim milk powder at 1:20000, and incubated at 37° C. for 1 h at 100 μL/well. It was washed 6 times with a plate washer, and patted dry on a flat paper. TMB color developing solution was added at 100 μL/well, and wrapped with aluminum foil. Color development was performed at 37° C. in the dark for 8 min. Termination solution 1M HCl was added to terminate the color development reaction at 100 μL/well. Readings were taken at 450 nm on an ELISA reader.

Human 4-1BB Fc = molecular target: T2, Human 4-1BB Fc (human, UniProt Q07011 24-186); experiment: bridging ELISA: Human 4-1BB Fc coated (0.3 ug/mL), antibody titrated, then Human-TNFR2-His (0.3 ug/mL), HRP anti-His detection (Example 4)
T2 construct: same catalogue and lot number as Human 4-1BB His; not shown: Fc
T2 sequence (Q07011 24-186 limits assumed): as above
Experimental: Human 4-1BB Fc (manufacturer: Acro, CAT: 41B-H5258, LOT: 198-2146F1-W6) was diluted to 0.3 μg/mL with a coating solution (1×PBS, pH7.4) and coated into a 96-well ELISA plate at 100 µL/well at 4° C. overnight. The coating solution was poured off. Each well was washed with 1×PBST at 300 μL, washed 4 times with a plate washer, and patted dry on a flat sheet. It was blocked with 3% skim milk powder at 300 μL/well, and incubated at 37° C. for 1 h. The blocking solution was poured off, washed 4 times with a plate washer, and patted dry on a flat sheet. […] Starting at 50 nM, which was used as the initial concentration for 3-fold dilution, a total of 10 gradients were diluted, and a blank well was set up and only the diluent was added. It was incubated at 37° C. for 1 h at 100 μL/well. The liquid in the well was discarded, washed 4 times with a plate washer, and patted dry on a flat paper. Human-TNFR2-His (manufacturer: Sino, CAT: 10417-H08H, LOT: LC15NO0412) was diluted to 0.3 μg/mL, 100 μL was added to each well, and incubated at room temperature for 1 h. The plate was washed 3 times with PBST, and then the HRP-labeled his antibody was diluted with sample diluent at 1:5000, 100 μ L was added to each well, and incubated at room temperature for 1 h. It was washed 6 times with a plate washer, and patted dry on a flat paper. TMB color developing solution was added at 100 μL/well, and wrapped with aluminum foil. Color development was performed at 37° C. in the dark for 8 min. Termination solution 1M HCl was added to terminate the color development reaction at 100 μL/well. Readings were taken at 450 nm on an ELISA reader.

Human-TNFR2-His [2] = molecular target: T3, Human-TNFR2-His (human, UniProt P20333 23-257); experiment: ELISA: Human-TNFR2-His coated (0.1 ug/mL), antibody titrated, goat anti-human IgG Fc detection (Example 2)
T3 construct: Bought protein; also called human TNFR2 protein; TNFR2 protein; not shown: His tag
T3 sequence (looked up): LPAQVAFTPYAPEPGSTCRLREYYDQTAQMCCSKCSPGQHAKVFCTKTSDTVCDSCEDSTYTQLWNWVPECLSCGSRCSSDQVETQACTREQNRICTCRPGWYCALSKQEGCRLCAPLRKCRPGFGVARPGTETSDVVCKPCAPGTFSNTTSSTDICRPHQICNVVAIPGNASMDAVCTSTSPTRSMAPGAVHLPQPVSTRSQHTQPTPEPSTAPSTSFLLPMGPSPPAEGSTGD
Experimental: (§2) Human-TNFR2-His (manufacturer: SINO, CAT: 10417-H08H, LOT: LC15NO0412) was diluted to 0.1 μg/mL with a coating solution (1×PBS, pH7.4), and coated in 96-well ELISA plate at 100 µL/well overnight at 4° C. The coating solution was poured off. Each well was washed with 1×PBST at 300 μL, washed 4 times with a plate washer, and patted dry on a flat paper. It was blocked with 3% skim milk powder at 300 μL/well, and incubated at 37° C. for 1 h. The blocking solution was poured off, washed 4 times with a plate washer, and patted dry on a flat paper. Negative control and positive control were set up. […] The positive control and antibody were diluted to 10 μg/mL with 3% skim milk powder as the starting concentration, and then diluted by 3-fold gradient (11 gradients in total), and a blank well was set up and only the diluent was added. It was incubated at 37° C. for 1 h at 100 μL/well. The liquid in the well was discarded, washed 4 times with a plate washer, and patted dry on a flat paper. Goat anti-human IgG Fc was diluted with 3% skim milk powder at 1:10000, and incubated at 37° C. for 1 h at 100 μL/well. It was washed 6 times with a plate washer, and patted dry on a flat paper. TMB color developing solution was added at 100 μL/well, and wrapped with aluminum foil. Color development was performed at 37° C. in the dark for 8 min. Termination solution 1M HCl was added to terminate the color development reaction at 100 μL/well. Readings were taken at 450 nm on an ELISA reader.

Human TNFR2 mFc = molecular target: T4, Human TNFR2 mFc (human, UniProt P20333 23-257); experiment: bridging ELISA: Human TNFR2 mFc coated (0.3 ug/mL), antibody titrated, then Human 4-1BB His (0.3 ug/mL), HRP anti-His detection (Example 5)
T4 construct: Bought protein; not shown: mFc
T4 sequence (looked up): T3 sequence (looked up)
Experimental: Human TNFR2 mFc (manufacturer: Kaixia, CAT: TN-HM3R2, LOT: 031202) was diluted to 0.3 μg/mL with a coating solution (1×PBS, pH7.4) and coated into a 96-well ELISA plate at 100 μL/well at 4° C. overnight. The coating solution was poured off. Each well was washed with 1×PBST at 300 μL, washed 4 times with a plate washer, and patted dry on a flat paper. It was blocked with 3% skim milk powder at 300 μL/well, and incubated at 37° C. for 1 h. The blocking solution was poured off, washed 4 times with a plate washer, and patted dry on a flat paper. […] Starting at 50 nM, which was used as the initial concentration for 3-fold dilution, a total of 10 gradients were diluted, and a blank well was set up and only the diluent was added. It was incubated at 37° C. for 1 h at 100 µL/well. The liquid in the well was discarded, washed 4 times with a plate washer, and patted dry on a flat paper. Human 4-1BB His (manufacturer: Acro, CAT: 41B-H5258, LOT: 198-2146F1-W6) was diluted to 0.3 μg/mL, 100 μL was added to each well, and incubated at room temperature for 1 h. The plate was washed 3 times with PBST, and then the HRP-labeled his antibody was diluted with sample diluent at 1:5000, 100 μ L was added to each well, and incubated at room temperature for 1 h. It was washed 6 times with a plate washer, and patted dry on a flat paper. TMB color developing solution was added at 100 μL/well, and wrapped with aluminum foil. Color development was performed at 37° C. in the dark for 8 min. Termination solution 1M HCl was added to terminate the color development reaction at 100 μL/well. Readings were taken at 450 nm on an ELISA reader.

Human-TNFR2-His [3] = molecular target: T3, Human-TNFR2-His; experiment: ELISA: Human-TNFR2-His coated (0.1 ug/mL), antibody titrated, goat anti-human IgG Fc detection (Example 2); remark: listed apart in the source
Experimental: as §2

Human 4-1BB His [4] = molecular target: T1, Human 4-1BB His; experiment: ELISA: Human 4-1BB His coated (0.2 ug/mL), antibody titrated, goat anti-human IgG Fc detection (Example 3); remark: listed apart in the source
Experimental: as §1

Human 4-1BB His [5] = molecular target: T1, Human 4-1BB His; experiment: as above; remark: listed apart in the source
Experimental: as §1

Human-TNFR2-His [6] = molecular target: T3, Human-TNFR2-His; experiment: ELISA: Human-TNFR2-His coated (0.1 ug/mL), antibody titrated, goat anti-human IgG Fc detection (Example 2); remark: listed apart in the source
Experimental: as §2

Human-TNFR2-His [7] = molecular target: T3, Human-TNFR2-His; experiment: as above; remark: listed apart in the source
Experimental: as §2

EC50 (read off the curve) (Human 4-1BB His [1]): ~0.1 nM
EC50 (read off the curve) (Human 4-1BB Fc): ~0.3 nM
EC50 (read off the curve) (Human-TNFR2-His [2]): ~0.6 nM
EC50 (read off the curve) (Human TNFR2 mFc): ~0.2 nM
B1: Antibody K (bispecific antibody, human IgG1, kappa)
light: DIQMTQSPSSLSASLGDRVTISCSASQGISNYLNWYQQKPDGTVKLLIYYTSTLHSGVPSRFSGSGSGTDYTLTISSLQPEDIATYYCQQYSKLPWTFGGGTKLEIKRTVAAPSVFIFPPSDEQLKSGTASVVCLLNNFYPREAKVQWKVDNALQSGNSQESVTEQDSKDSTYSLSSTLTLSKADYEKHKVYACEVTHQGLSSPVTKSFNRGECGGGGSGGGGSEVQLVESGGGLVQPGGSLRLSCAASGSRLDYYAVAWFRQAPGKEREEVSCITYSGGSTNYAESVKGRFTISRDNSKNTLYLQMNSLRAEDTAVYYCTTEPYGSSCPLSGYDTWGQGTLVTVSS
heavy: not shown
notes: IgG1 subtype; full-length 4-1BB antibody with TNFR2 VHH at the C-terminus of the light chains

EC50 (read off the curve) (Human 4-1BB Fc): ~0.5 nM
EC50 (read off the curve) (Human-TNFR2-His [3]): ~0.1 nM
EC50 (read off the curve) (Human 4-1BB His [4]): ~0.07 nM
EC50 (read off the curve) (Human TNFR2 mFc): ~0.2 nM
B2: Antibody G (bispecific antibody, human IgG1, kappa)
light: DIVMTQSPATLSVSPGERATLSCKASQNVGSNVDWYQQKPGQSPRVLIYKASIRYTGIPARFSGSGSGTEFTLTISILQSEDFAVYFCMQSKSYPITFGQGTKLEIKRTVAAPSVFIFPPSDEQLKSGTASVVCLLNNFYPREAKVQWKVDNALQSGNSQESVTEQDSKDSTYSLSSTLTLSKADYEKHKVYACEVTHQGLSSPVTKSFNRGEC
heavy: not shown
notes: IgG1 subtype; full-length TNFR2 antibody with 4-1BB scFv at the N-terminus of the heavy chains

EC50 (read off the curve) (Human 4-1BB His [5]): 0.3 to 0.4 nM
EC50 (read off the curve) (Human-TNFR2-His [6]): ~0.2 nM
B3: Antibody E2 (bispecific antibody, human IgG4 S228P, kappa)
light: B2 light
heavy: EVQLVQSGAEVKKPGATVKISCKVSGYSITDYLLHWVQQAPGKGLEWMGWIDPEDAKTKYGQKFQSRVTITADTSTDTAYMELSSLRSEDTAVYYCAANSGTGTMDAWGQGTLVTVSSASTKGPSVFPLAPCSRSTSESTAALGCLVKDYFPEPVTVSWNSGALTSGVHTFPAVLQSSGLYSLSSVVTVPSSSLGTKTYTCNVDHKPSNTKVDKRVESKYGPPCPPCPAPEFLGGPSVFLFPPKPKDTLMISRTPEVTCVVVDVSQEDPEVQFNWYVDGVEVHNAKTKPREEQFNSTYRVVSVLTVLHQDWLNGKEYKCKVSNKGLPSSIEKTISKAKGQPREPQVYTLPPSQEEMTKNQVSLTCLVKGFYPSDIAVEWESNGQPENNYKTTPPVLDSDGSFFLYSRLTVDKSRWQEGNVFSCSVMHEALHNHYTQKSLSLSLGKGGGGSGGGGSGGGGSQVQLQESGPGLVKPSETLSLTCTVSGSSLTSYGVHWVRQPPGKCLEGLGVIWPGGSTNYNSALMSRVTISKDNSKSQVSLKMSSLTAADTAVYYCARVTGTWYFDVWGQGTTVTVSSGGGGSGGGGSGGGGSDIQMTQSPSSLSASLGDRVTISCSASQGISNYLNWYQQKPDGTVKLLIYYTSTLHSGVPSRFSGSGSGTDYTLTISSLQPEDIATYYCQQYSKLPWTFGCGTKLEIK
notes: IgG4 subtype; same order as E1

EC50 (read off the curve) (Human-TNFR2-His [7]): ~0.1 nM
EC50 (read off the curve) (Human 4-1BB His [1]): ~0.3 nM
EC50 (read off the curve) (Human 4-1BB Fc): ~0.3 nM
B4: Antibody N (bispecific antibody, human IgG1, kappa)
light: EVQLVESGGGLVQPGGSLRLSCAASGSRLDYYAVAWFRQAPGKEREEVSCITYSGGSTNYAESVKGRFTISRDNSKNTLYLQMNSLRAEDTAVYYCTTEPYGSSCPLSGYDTWGQGTLVTVSSGGGGSGGGGSGGGGSDIQMTQSPSSLSASLGDRVTISCSASQGISNYLNWYQQKPDGTVKLLIYYTSTLHSGVPSRFSGSGSGTDYTLTISSLQPEDIATYYCQQYSKLPWTFGGGTKLEIKRTVAAPSVFIFPPSDEQLKSGTASVVCLLNNFYPREAKVQWKVDNALQSGNSQESVTEQDSKDSTYSLSSTLTLSKADYEKHKVYACEVTHQGLSSPVTKSFNRGEC
heavy: not shown
notes: IgG1 subtype; full-length 4-1BB antibody with TNFR2 VHH at the N-terminus of the light chains
